Assay results published in US20060177432.

System: T1, 6xHis-PEBP (recombinant mouse PEBP with a 6xHis-tag at the N-terminus)
T1 sequence: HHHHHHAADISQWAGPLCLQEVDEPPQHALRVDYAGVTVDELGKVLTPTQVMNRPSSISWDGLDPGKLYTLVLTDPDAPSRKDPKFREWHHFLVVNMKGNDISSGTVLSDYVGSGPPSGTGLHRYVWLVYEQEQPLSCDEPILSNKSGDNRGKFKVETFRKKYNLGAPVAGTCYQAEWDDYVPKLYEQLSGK

Sequence of trypsin (P00760 24-246): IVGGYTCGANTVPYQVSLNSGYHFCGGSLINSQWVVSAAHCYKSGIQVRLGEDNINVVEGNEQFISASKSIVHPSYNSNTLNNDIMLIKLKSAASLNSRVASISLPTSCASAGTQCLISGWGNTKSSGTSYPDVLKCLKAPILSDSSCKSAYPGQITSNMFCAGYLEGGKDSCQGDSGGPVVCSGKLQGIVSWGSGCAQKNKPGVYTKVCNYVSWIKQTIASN
Sequence of tissue plasminogen activator (P00750 36-562): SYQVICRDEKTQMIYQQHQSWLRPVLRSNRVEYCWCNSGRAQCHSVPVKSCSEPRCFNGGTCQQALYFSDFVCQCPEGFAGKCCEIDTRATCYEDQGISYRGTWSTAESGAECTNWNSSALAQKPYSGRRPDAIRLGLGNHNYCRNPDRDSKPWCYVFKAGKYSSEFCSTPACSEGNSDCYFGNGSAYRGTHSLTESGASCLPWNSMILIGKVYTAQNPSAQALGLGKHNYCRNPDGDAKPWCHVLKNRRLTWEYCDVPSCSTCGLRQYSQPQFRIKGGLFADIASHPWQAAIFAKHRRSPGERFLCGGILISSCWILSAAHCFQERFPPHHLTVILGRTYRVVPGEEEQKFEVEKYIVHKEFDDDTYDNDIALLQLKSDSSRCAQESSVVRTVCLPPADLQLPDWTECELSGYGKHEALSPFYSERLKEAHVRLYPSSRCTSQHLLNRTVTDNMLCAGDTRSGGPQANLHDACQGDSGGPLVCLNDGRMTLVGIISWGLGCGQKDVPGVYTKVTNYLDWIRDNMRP
Sequence of pancreatic elastase (P00772 27-266): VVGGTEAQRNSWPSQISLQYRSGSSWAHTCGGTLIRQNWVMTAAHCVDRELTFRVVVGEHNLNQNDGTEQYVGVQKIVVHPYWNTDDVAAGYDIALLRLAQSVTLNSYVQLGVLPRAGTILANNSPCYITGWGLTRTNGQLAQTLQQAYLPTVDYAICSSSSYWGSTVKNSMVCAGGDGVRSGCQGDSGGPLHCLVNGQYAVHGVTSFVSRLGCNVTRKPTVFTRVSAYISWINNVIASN

Substance	amidolytic activity (chromogenic substrate, 405 nm)
pancreatic elastase	The amidolytic activities of ... pancreatic elastase (4 pmol) were not affected
tissue plasminogen activator	The amidolytic activities of ... tissue plasminogen activator (0.5 pmol) ... were not affected
trypsin	The amidolytic activities of trypsin (0.005 pmol) ... were not affected
